Laboratory results published in publication PMC5402979, “Tissue-specific enhancer repression through molecular integration of cell signaling inputs”.
Positions count from the first letter of the chain named.

How the values were obtained:
GST-BowlZF = GST-BowlZF (UniProt Q9VQU9 220-382); assay: EMSA; EMSA, 6% native polyacrylamide, 32P probes; buffers as in cited refs 22 (Bowl) and 26 (HD), not stated here; details: protein: recombinant, tags: GST (N-term, pGex4T)
GST-C15HD [1] = molecular target: T1, GST-C15HD (Drosophila melanogaster, UniProt Q4V729 192-292); assay: as above; details: protein: recombinant; tags: GST (N-term, pGex4T); label: 32P (Klenow dCTP)
GST-DllHD = GST-DllHD (UniProt P20009 120-188); assay: EMSA; strictly monomeric; abolished by increasing GST-C15HD; EMSA, 6% native polyacrylamide, 32P probes; buffers as in cited refs 22 (Bowl) and 26 (HD), not stated here; details: protein: recombinant; tags: GST (N-term, pGex4T); label: 32P (Klenow dCTP)
GST-C15HD [2] = molecular target: T1, GST-C15HD; assay: EMSA; monomeric and some dimeric complexes; displaces DllHD dose-dependently; EMSA, 6% native polyacrylamide, 32P probes; buffers as in cited refs 22 (Bowl) and 26 (HD), not stated here; details: protein: recombinant; tags: GST (N-term, pGex4T); label: 32P (Klenow dCTP)
GST-C15HD [3] = molecular target: T1, GST-C15HD; assay: EMSA; up to three complexes; EMSA, 6% native polyacrylamide, 32P probes; buffers as in cited refs 22 (Bowl) and 26 (HD), not stated here; details: protein: recombinant; tags: GST (N-term, pGex4T); label: 32P (Klenow dCTP)
GST-C15HD [4] = molecular target: T1, GST-C15HD; assay: EMSA; equivalent to CR1; EMSA, 6% native polyacrylamide, 32P probes; buffers as in cited refs 22 (Bowl) and 26 (HD), not stated here; details: protein: recombinant; tags: GST (N-term, pGex4T); label: 32P (Klenow dCTP)

T1 sequence (Q4V729 entry or part of it): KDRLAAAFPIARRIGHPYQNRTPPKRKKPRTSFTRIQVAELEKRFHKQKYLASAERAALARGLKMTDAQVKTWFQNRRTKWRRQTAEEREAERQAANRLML
Chain of GST-BowlZF (Q9VQU9 220-382): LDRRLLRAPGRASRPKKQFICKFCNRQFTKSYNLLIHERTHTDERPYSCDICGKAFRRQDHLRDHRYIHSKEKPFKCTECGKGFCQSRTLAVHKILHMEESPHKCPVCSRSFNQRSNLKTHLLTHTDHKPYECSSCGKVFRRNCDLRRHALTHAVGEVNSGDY
Chain of GST-DllHD (P20009 120-188): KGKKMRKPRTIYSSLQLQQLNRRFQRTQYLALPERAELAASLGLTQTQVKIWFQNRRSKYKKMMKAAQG

B1: 1Lm (dsDNA)
DNA 1: TACAATTTAAGCCGTAAAGC
DNA 2: GCTTTACGGCTTAAATTGTA
- binding result (GST-BowlZF; label: 32P (Klenow dCTP)): no binding

B2: 1L+ (CR2 large) (dsDNA)
DNA 1: TACAACAGAAGCCGTCTGGC
DNA 2: GCCAGACGGCTTCTGTTGTA
- binding result (GST-BowlZF; label: 32P (Klenow dCTP)): binds

B3: CR1S3+4+6m (dsDNA)
DNA 1: TTAAGCTGCAAATCGCGGCGGGCGCCCCGATCACGCCGGGCGGTTCGGGATTAATGGTAATAAGCAGTT
DNA 2: AACTGCTTATTACCATTAATCCCGAACCGCCCGGCGTGATCGGGGCGCCCGCCGCGATTTGCAGCTTAA
- binding result (GST-C15HD [1]): no binding

B4: CR1 3' half (dsDNA)
DNA 1: CACGAAAAACAATTCAAAATTAATGGTAATAAGCAGTT
DNA 2: AACTGCTTATTACCATTAATTTTGAATTGTTTTTCGTG
- binding result (GST-DllHD): binds
- binding result (GST-C15HD [2]): binds

B5: CR1 (dsDNA)
DNA 1: TTAAGCTGCAAATCGCGGCAATCGTTAAGATCACGAAAAACAATTCAAAATTAATGGTAATAAGCAGTT
DNA 2: AACTGCTTATTACCATTAATTTTGAATTGTTTTTCGTGATCTTAACGATTGCCGCGATTTGCAGCTTAA
- binding result (GST-C15HD [3]): binds

B6: CR1DBSm (dsDNA)
DNA 1: B5 DNA 1 with A50C, T51C, T52C, A53C, T58C, A59C, A60C, T61C
DNA 2: B5 DNA 2 with A9G, T10G, T11G, A12G, T17G, A18G, A19G, T20G
- binding result (GST-C15HD [4]): binds

B7: OddZF BS (dsDNA)
DNA 1: GCATACAGTAGCACTGATAT
DNA 2: ATATCAGTGCTACTGTATGC
- binding result (GST-BowlZF; label: 32P 5' end (Klenow, one dCTP)): binds

B8: 2Sm (dsDNA)
DNA 1: AAATTTTAGTCCCAG
DNA 2: CTGGGACTAAAATTT
- binding result (GST-BowlZF; label: 32P (Klenow dCTP)): no binding

B9: 1Sm (dsDNA)
DNA 1: TACAATTTAAGCCGTC
DNA 2: GACGGCTTAAATTGTA
- binding result (GST-BowlZF; label: 32P (Klenow dCTP)): no binding

B10: DBS (Dll-binding sequence) (dsDNA)
DNA 1: TCAAAATTAATGGTAATAAGCA
DNA 2: TGCTTATTACCATTAATTTTGA
- binding result (GST-C15HD [1]): no binding
